± gives the standard error. This sample holds only a part of the variants without activity.
B1: glmS ribozyme (parent)
chain: AUAAAAGCGCCAGAACUACAGAAAUGUAGUUGACGAGGAGGAGGUUUAUCGAAUUUUCGGCGGAUGCCUCCAAA

Assays:
Details in all cases: with glucosamine-6-phosphate
glucosamine-6-phosphate [1] = variants of: B1; experiment: self-cleavage kobs at 40 uM GlcN6P; higher = faster cleavage; RNA array
Method in brief: (§1)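 Glucosamine-6-phosphate, from 40 μM to 10 mM in HEPES/KCl/Mg(OAc)2 buffer, was flowed over sequenced MiSeq chips carrying barcoded ribozyme variants transcribed in situ by E. coli RNA polymerase. A hybridised Cy3 probe tracked the variants at 37 °C as tiles were imaged over ~14 h. kobs, kcat and KM were obtained by fitting normalised per-tile medians to exponential decays and then applying weighted Michaelis–Menten fits across concentrations.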

glucosamine-6-phosphate [2] = variants of: B1; experiment: self-cleavage kobs at 160 uM GlcN6P; higher = faster cleavage; RNA array
Method in brief: as §1

glucosamine-6-phosphate [3] = variants of: B1; experiment: self-cleavage kobs at 640 uM GlcN6P; higher = faster cleavage; RNA array
Method in brief: as §1

glucosamine-6-phosphate [4] = variants of: B1; experiment: self-cleavage kobs at 2500 uM GlcN6P; higher = faster cleavage; RNA array
Method in brief: as §1

glucosamine-6-phosphate [5] = variants of: B1; experiment: self-cleavage kobs at 10000 uM GlcN6P; higher = faster cleavage; RNA array
Method in brief: as §1

Variant | self-cleavage kobs at 40 uM GlcN6P (glucosamine-6-phosphate [1]) [s⁻¹] | self-cleavage kobs at 160 uM GlcN6P (glucosamine-6-phosphate [2]) [s⁻¹] | self-cleavage kobs at 640 uM GlcN6P (glucosamine-6-phosphate [3]) [s⁻¹] | self-cleavage kobs at 2500 uM GlcN6P (glucosamine-6-phosphate [4]) [s⁻¹] | self-cleavage kobs at 10000 uM GlcN6P (glucosamine-6-phosphate [5]) [s⁻¹]
U30A C34U | < 1e-05 | < 1e-05 | < 1e-05 | < 1e-05 | –
G29U G38U U55G | < 1e-05 | – | – | < 1e-05 | < 1e-05
U30G C50G | 0.000146 ± 6.1e-05 | 7.58e-05 ± 2.1e-05 | 7e-05 ± 2.2e-05 | 0.000109 ± 2.3e-05 | –
U31G A33G | < 1e-05 | – | < 1e-05 | – | < 1e-05
G29C G41U A48G U49C G60C | < 1e-05 | – | – | – | < 1e-05
G29C G44U | < 1e-05 | < 1e-05 | < 1e-05 | – | –
U30G C61U | < 1e-05 | – | < 1e-05 | < 1e-05 | –
U30G C61A | < 1e-05 | – | – | – | < 1e-05
U30G C61G | < 1e-05 | – | – | – | < 1e-05
U31A U49C | < 1e-05 | < 1e-05 | < 1e-05 | < 1e-05 | < 1e-05
U30A A48U | < 1e-05 | – | – | – | 4.05e-05 ± 1.5e-05
U30G A52U U54A | < 1e-05 | – | – | – | 4.6e-05 ± 1.6e-05
U30G G44U U45C | < 1e-05 | – | – | – | < 1e-05
U30C A39U C68A | < 1e-05 | – | – | – | < 1e-05
U31A U45A G62U C68A | < 1e-05 | – | – | – | –
U31A G63U | < 1e-05 | < 1e-05 | < 1e-05 | < 1e-05 | < 1e-05
U31A G63A | < 1e-05 | – | – | – | < 1e-05
U30C G41C C61A C71U | < 1e-05 | – | – | – | < 1e-05
U30G U49C A64C | < 1e-05 | < 1e-05 | – | – | < 1e-05
G29U U49A U57C C70G | < 1e-05 | – | – | – | –
U30G G35A | < 1e-05 | – | – | < 1e-05 | < 1e-05
U30G G51C | < 1e-05 | – | – | – | –
U30A G35A G59A C71G | < 1e-05 | – | – | < 1e-05 | –
U31C G44U U56C | < 1e-05 | – | – | – | –
U31C G35A G37U | < 1e-05 | – | – | – | –
U30C G41A A42C C50G | < 1e-05 | – | – | – | < 1e-05
U30A G59U | < 1e-05 | – | – | – | –
G29U A52C G66A | < 1e-05 | – | – | – | –

Variant | self-cleavage kobs at 40 uM GlcN6P (glucosamine-6-phosphate [1]) [s⁻¹] | self-cleavage kobs at 160 uM GlcN6P (glucosamine-6-phosphate [2]) [s⁻¹] | self-cleavage kobs at 640 uM GlcN6P (glucosamine-6-phosphate [3]) [s⁻¹] | self-cleavage kobs at 2500 uM GlcN6P (glucosamine-6-phosphate [4]) [s⁻¹] | self-cleavage kobs at 10000 uM GlcN6P (glucosamine-6-phosphate [5]) [s⁻¹]
U31C G38A U46G | < 1e-05 | – | – | – | –
U30G U55G C71U | 0.00027 ± 5e-05 | – | 0.00135 ± 0.00022 | 0.00316 ± 0.0014 | 0.00591 ± 0.001
U31A A36G | < 1e-05 | < 1e-05 | < 1e-05 | – | –
U31A G62U | < 1e-05 | < 1e-05 | < 1e-05 | – | < 1e-05
U31A U45C A48U | < 1e-05 | – | < 1e-05 | – | –
G29U C50G | 5.51e-05 ± 1.5e-05 | 0.000992 ± 0.0003 | 5.49e-05 ± 1.4e-05 | – | –
U30A A33U G41U A53C G60A C68G | < 1e-05 | < 1e-05 | < 1e-05 | – | < 1e-05
U31A G32U A36U G59A | < 1e-05 | – | – | – | < 1e-05
U31C G37C | < 1e-05 | < 1e-05 | – | – | –
U31A A53G C61A | < 1e-05 | – | – | < 1e-05 | < 1e-05
U30C C34U | < 1e-05 | – | < 1e-05 | – | –
G29U G41U G51A | < 1e-05 | – | – | < 1e-05 | –
G29C U54A | 6.64e-05 ± 1.5e-05 | – | 0.000499 ± 8.4e-05 | 0.000928 ± 0.00025 | 0.00381 ± 0.00046
U31C A39U C68A | < 1e-05 | – | < 1e-05 | – | –
G29C G63U | < 1e-05 | – | – | < 1e-05 | < 1e-05
U30A G59A G60C C71A | < 1e-05 | – | – | – | < 1e-05
U31C C34U G60U | < 1e-05 | – | – | – | < 1e-05
U30C C61U | < 1e-05 | < 1e-05 | – | – | –
U30C C61A | < 1e-05 | – | – | – | < 1e-05
G29U A36U A52G | < 1e-05 | – | – | – | –
U31A C34U C71U | < 1e-05 | – | – | – | –
U30C G35A C67U | < 1e-05 | – | – | – | –
U30G C34A G51U A64U | < 1e-05 | – | – | – | –
U31C G43U G66A | < 1e-05 | – | – | – | –
U30G G60C | < 1e-05 | – | < 1e-05 | – | < 1e-05
U31C G41U U45G C70G | 3.43e-05 ± 1.6e-05 | – | – | – | 0.000585 ± 0.00013
U30G C58G | < 1e-05 | – | 6.88e-05 ± 3e-05 | 6.46e-05 ± 1.8e-05 | 0.000122 ± 1.4e-05

— the supplement of paper PMC7125110
